According to US20240190985A1:

Key:
[1] = target: CD99 endogenously expressed on cells (Jurkat, KOPT-K1) (UniProt P14209); test: cell binding; apparent KD; nM Fv; avid
[2] = target: CD99 endogenously expressed on cells (Jurkat, KOPT-K1) (UniProt P14209); test: cell binding; apparent KD; nM molecule; avid
[3] = target: SUMO-CD99 fusion protein (SUMO fused with the extracellular domain of CD99, residues 23-122) (human) (UniProt P14209); test: apparent affinity to the recombinant ECD of CD99; method not given, value compared with the bead-based values of FIG. 1F
Sequence of SUMO-CD99 fusion protein (SUMO fused with the extracellular domain of CD99, residues 23-122) (human) (P14209 23-122): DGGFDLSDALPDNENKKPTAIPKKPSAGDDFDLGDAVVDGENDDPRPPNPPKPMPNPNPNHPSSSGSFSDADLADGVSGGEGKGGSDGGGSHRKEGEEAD

Sequence of CD99 endogenously expressed on cells (Jurkat, KOPT-K1) (P14209 23-185): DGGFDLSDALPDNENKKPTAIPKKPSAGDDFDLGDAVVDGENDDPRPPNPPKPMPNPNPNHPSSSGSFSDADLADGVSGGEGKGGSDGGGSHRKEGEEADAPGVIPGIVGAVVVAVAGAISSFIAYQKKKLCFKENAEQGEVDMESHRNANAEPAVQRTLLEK

| Kd [1] [nM] | Kd [2] [nM] | Kd [3] [nM] | Substance |
| --- | --- | --- | --- |
| 5.2 | 2.6 |  | bivalent SAV-10A1 Fab complex (A2D2 streptavidin with biotinylated 10A1 Fab) (from UniProt P22629 37-163; P22629 37-163) |
| 3.9 | 1.3 |  | trivalent SAV-10A1 Fab complex (A3D1 streptavidin with biotinylated 10A1 Fab) (from UniProt P22629 37-163; P22629 37-163) |
|  |  | 226 | anti-CD99 mouse IgM, HO36-1.1 (ab212605, Abcam) (antibody) |
